Test: yeast display, Sf9 membrane polyspecificity reagent, FACS + sequencing; frameworks hold sequencing errors
Summary of the method: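 Galactose-induced (36–48 hours) yeast carrying a synthetic nanobody display library were exposed to 10% biotinylated, detergent-solubilized Sf9 membrane reagent at 4 °C for 1 hour. FACS followed streptavidin microbead enrichment, using low and high (top ~1%) gates for expression (anti-HA) and reagent binding (streptavidin). Colony PCR, MiSeq 2 × 250 sequencing and CDR-length filtering followed. Labels for polyreactivity reflect the gate of origin.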

Row | Sequence | polyreactivity (PSR sort gate)
1 | QVQLVQSGGGLVQAGGSLRLSCAASGRTFYRNGMGWYREAPGKDREFVAAINYRGGSTNYADSVKGRFTITRDNAKITVYLQMNSLKPEDTAVYYCATRIFRAALRFDYWGQGTQVTVSS | high polyreactivity
2 | QVQLVQSGGGLVQAGGSLRLSCAASGRTFYYAMGWYRQAPGKERELVARITRRGGSTYYADSVKGRFTISRDNAKNTVYLQMNSLKPEDTAVYYCNARWHRYLLATYGYWVQGTQVTVSS | high polyreactivity
3 | QVQLVQSGGGLVQAGGSLRLSCAASGSIFTSYAMGWYRQAPGKERELVAAINGSGGSTFYADSVKGRFTISRDHAKNTVYLQMNSLNPEYTAVYYCYTVGPRGTTYDDWGQGSQVTVSS | low polyreactivity
4 | QVQLVQSGGGLVQAGGSLRLSCAASGYILNPYAMGWYRPAPGKERELVAAITSGTITYYADSVKGRFTITRDNAKNTVYLQMNSLKPEDTAVYYCAADSWAHYESYDYWGQGTQVTVSS | low polyreactivity
5 | QVQLVQSGGGLVQAGGSLRLSSAASGSTFWANAMGWYRQAPGKERELVAAISVRGGNTYYADSVKGRFTISRDNAKNTVYLQMNSLKPEDTAVYYCAARPISWTSYYDYWGQGTQVSVSS | high polyreactivity
6 | QVQLVQSGGGLVQARGILRLSCPPSGINFWYNAMGWYSQAQGKERELVASISTGGRTYYADSVKGRFTFSRDNAKNTVYLQMNSLKPVDTAVYYCAAASRVGFLYYYWGQGSQVTVSS | low polyreactivity
7 | QVQLVQSGGGLVQEGGSLRLSCYASGRIFSIYTLGWYRQAPGKERELVAAIRWSGGSTYYADSVKWRLTISRDNAKNTVYLQMNSLKPEDTAVYYCARQSVLGYRSYGPFPKYYYWGQGTQVTVSS | high polyreactivity
8 | QVQLVQSGGGVVQAGGSLRLSCAASGRIFNTNAMGWYRHAPGKERELVAGITDSGDSTYYADSVKGRFTISRDNAKITVYLQMYSLKPEDSAVYYCATDPASPYIYDFWGLGTQVTVSS | low polyreactivity
9 | QVQLVQTGRGLVQAGGSLRLICAASANIFYTNAMGWYRQAPGKERELVAAISGSGGRTYYADSVKGRFTISRDNAKNTVYLQMNSLKPEDTAVYYFNAVRRDYYDRTYGYWGQGTQVTVSS | low polyreactivity
10 | QVQLVVSGAGLVQAGGSLRLSCAASGRNVVRNAMGWSRQAPGNEREWVAAITSGGRTYYAVSVKGRFTISRDNAKNTVYLQMTSLTPEDTAVYSCSTETRPHSVKNSPISLPDDYWGQGTQETVSS | low polyreactivity
11 | QVQLVVSGGGLVQAGGSLRLSCAASGFIFYRYAMGWYRQAPGKEWELVAAISRSGGTTYYADSVKGRFTISRDNAKNTVYLQKNSLKPEDTAVYYCNVKRGTIGGYYYWGQGTQVTVSS | high polyreactivity
12 | QVQLVVSGGGLVQAGGSLRLSCAASGNTFTKYAMGWYRQAPGKERELVAGITRGGSTNYADSVKGRFTISRDNAKNTVYLQMNSLIPEDTAVYYCNARPVYGSRFYSAVRMEYWGQATQVTVSS | low polyreactivity
13 | QVQLVVSGGGLVQAGGSLRLSCAASGRTFRSYAMGWYRQEPGKERELVAAISDGGSTNYADSVKGRFTISRDNAKNTVYLQMNSLKPEDTAVYYCAAEFFFAVFRFYYWGQGTQVTVSS | low polyreactivity
14 | QVQLVVSGGGLVQAGGSLRLSCAASGSIFAQNVMGWYRQAPGKERELVAAISYCGGTTYYADSVKGRFTISRDNAMNSVYLQMNSLKPEDTAVYYCAAEFGVYEYDYWGQGTQVTVSS | low polyreactivity
15 | QVQLVVSGGGLVQAGGSLRLSCAASGSIFSRYTMGWYRVAPGKERELVAAITASGTRTYYADSVKGRFTISRDNAKNTVYLQMNSLKPEDTAVYYCNVVRGSRDVTYGYNYWGQGTQVTVSS | high polyreactivity
16 | QVQLVVSGGGLVQAGGSLRLSCAASGSTVVTYAMGWYRQAPGKERELVAAISRSGTSTYYADSVKGRYTISRDNAKYTVYLHLPSRKPEDTAVYDCAAYGPRVNGEIGREYYYWGQGTQVTVSS | low polyreactivity
17 | QVQLVVSGGGLVQAGGSLRLSFAASGFIFRYYGGGWYTPAPGKERELVAAITSTGRRYYADSVKGRFTISRDNAKNTVYLQMNSLKPEDTAVYYCAKAWLRWCEDYWGQGTQVTVSS | low polyreactivity
18 | QVQLVVSGVGLVQAGGSLRLSCAASGRIFSYYAMGWYRQAPGKEREFVATNSGSGGSTYYADSVKGRFTISRDNAKNTVYLEMNSLKPEDTAVYYCKARSYSYWSNWRNAGSYDYWGQGTQVTVSS | high polyreactivity
19 | QVQMQESGGGTVMAGGSLRLSCAASGTIFVRLDMGSYRQAPGKEREFVATIGSGSSTYYADSVKGSFTISRDNVNKSVYLQMNSLKPEDTAVYYCAVSAAEQCRDYYWDQGTQVTVSS | low polyreactivity
20 | QVQMQESRGGLVQAGGSLRLSCAASGYISYLDFMGWYRQAPGKERELVAGITTGATTNYADSVKGRFTISRDNGKNIVYQQMNSLKPEDTAVYFCAVIGGDTRGHPYWGQGTQLTVSS | low polyreactivity
21 | QVQPQESAGGLVQAGGSLLQSSAASAYIFPYYSMGWYRQAPGKERGLVACIAAGTTTNYADSVKGRFTISRDNAKNTVYLQMKSLKPEDAAVYYCAALKAFNTGHWYWGQGTQVTVSS | low polyreactivity
22 | QVQPQESGGGLVQAGGSLRLRCAASGTIFAFQTMGSYRQAPGKERELVASITYGSSTNYADSVKGRFTISRDNAKNTVYLQMNSLKPEDTAVFYCAVPQAQYYYDYWGQGTQVTVSS | high polyreactivity
23 | QVQPVESGGGLVQAGGSLRLSCAASASTFYYYAMGWSRQAPGKERELVASITTGGGSTYYADSVKGRFTISRDNAKKTVYLQMNSLNPEDTAVYYCNAGRYGSNLEYWGQGTQVTVSS | low polyreactivity
24 | QVQPVESGGGLVQAGGSLRLSCADSGSIIYYNAMGWYRQAPGKEREFVAAITSSGGSTYADSVKGRFTISRDNGKNTVYIQMNSMKPEDTAVYYCATVAHGLLSGSGYIYAYDYWGQGTQVTVSS | low polyreactivity
25 | QVQQQESGGGLEQAGGSLRLSCAASGTIFQLTVMGRYRQAPGKERELVASIDYGGNTNYADSVKGRFTISRDNAKKTVYLQMNSLKPEDTAVYYCAASSDSWTTHPYWGQGTQVTVSS | low polyreactivity
26 | QVQQQESGGGLVQAGGSLRLSCAASGNIFRFTRMGWYRQGPGQVREFVAGIGDGSTTYYADSVKGRFTISRDNAKNTVHLQMNSQKPEDTAVYSCAVGDSGFVHHPYWGQGTQVTVSS | high polyreactivity
27 | QVQQQESGGGLVQAGGSLRLSCAASGTIFQLTVMGRYRQASGKERELVASIDYGGNTNYADSVKGRFTISRDNAKNTVYLQMNSLKPEDTAVYFCAASSDSWTTHPYWGQGTQVTVSS | low polyreactivity
28 | QVQQQESGGGLVQASGSLRLSCAASGNIFPDYVMGWYRQGPGQEREFVANITGGSTTNYADSVKGRFSISRDNAKNTVYLQMNCLKQEDTAVYYCAVNFGTVVLYLYWGQGTQVTVSS | high polyreactivity
29 | QVQQQESGGGQVQAGGSLRLSCAASGTIFLYAFLGRYRQAPGKERELVAAIDVGTTTNYADSVKGRFTIRRDNANNTVYLQMNSLKPEDTAVYYCAATLGYLDDLGYWGQGTQVTVSS | low polyreactivity
30 | QVQQVESGGGLVQAGGSLRLSCAASGTFGYYAMGWYRQAPGKERELVAGITWSGGSTYYADSVKGRFTISRDNAKNTVYLQMNSLKPEDTAVYYCATSSYTGYWGQGTQVTVSS | low polyreactivity

From the nanobody polyreactivity screen of Harvey et al. (2022)
